Results as given in patent US20170275376A1 (Chugai, published 2017).
Each block holds one binder with its values, some of them ahead of it.

Key:
anti-FIXa-arm of ACE910 = target: T1, anti-FIXa-arm of ACE910; test: ELISA, hybridoma culture supernatant
T1 construct: This is inferred from the parallel order 'anti-FIXa/FX' and 'Q499-z121/J327-z119' and from the AQ/AJ antibody names; also called anti-FIXa side; anti-FIXa-F(ab')2
Method: (§1) Mice and rats were immunized with anti-FIXa-F(ab′)2 or anti-FX-F(ab′)2. Cells obtained from the spleen removed from the mice or rats or from rat lymph nodes were subjected to cell fusion with mouse myeloma cells by following general methods to produce the hybridomas. The culture supernatants of the hybridomas were evaluated by ELISA which detects the binding of ACE910 to the anti-FIXa-arm or the anti-FX-arm, and ultimately, mouse antibodies, AQ8 and AQ1, and rat antibody, AQ512, which bind only to the anti-FIXa-arm but not to the anti-FX-arm of ACE910, and rat antibodies, AJ540, AJ114, AJ521, AJ522, and AJ541, which bind only to the anti-FX-arm but not to the anti-FIXa-arm of ACE910 were selected. In addition, the nucleotide sequences of the variable regions of the AQ8 antibody or the AJ540 antibody were analyzed. The nucleotide sequences of the variable regions of AQ8 and AJ540, and amino acid sequences predicted therefrom were analyzed using GENETYX Ver.9 (GENETYX CORPORATION).

anti-FX-arm of ACE910 = target: T2, anti-FX-arm of ACE910; test: ELISA, hybridoma culture supernatant
T2 construct: This is inferred from the parallel order 'anti-FIXa/FX' and 'Q499-z121/J327-z119' and from the AQ/AJ antibody names; also called anti-FX side; anti-FX-F(ab')2
T2 sequence (VH, as listed by the source, chain 1 of 2): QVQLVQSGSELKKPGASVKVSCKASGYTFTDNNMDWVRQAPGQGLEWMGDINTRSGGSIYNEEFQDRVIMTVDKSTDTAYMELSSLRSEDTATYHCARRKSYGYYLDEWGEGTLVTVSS
T2 sequence (VL, as listed by the source, chain 2 of 2): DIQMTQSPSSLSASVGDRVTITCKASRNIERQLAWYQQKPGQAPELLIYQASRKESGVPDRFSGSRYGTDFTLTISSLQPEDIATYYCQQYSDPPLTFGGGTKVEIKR
Method: as §1

T1 sequence (VH, as listed by the source, chain 1 of 2): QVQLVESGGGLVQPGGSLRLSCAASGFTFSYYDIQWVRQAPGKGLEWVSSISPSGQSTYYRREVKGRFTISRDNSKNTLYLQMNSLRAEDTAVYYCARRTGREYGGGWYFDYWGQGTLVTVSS
T1 sequence (VL, as listed by the source, chain 2 of 2): as the sequence (VL, as listed by the source, chain 2 of 2) above

binding result (anti-FIXa-arm of ACE910): no binding
B1: rat antibody AJ540 (antibody, V domains shown)
VH: QIQLVQSGPELKKPGESVKISCKASGYTFTDYAMHWVKQVPGKGLKWMGWINTYTGKPTYADDFKGRFVFSLEASASTANLQISNLKNEDTANVFCAREGGGYYWYFDFWGPGTMVTVSS
VL: DIVMTQSPTSMSISVGDRVTMNCKANQNVDFNVDWYQQKTGQSPKLLIYKASNRYTGVPDRFTGSGSGTDFTFTISNMQAEDLAVYYCMQSNSFPLTFGSGTNLEIK
notes: Rat hybridoma antibody, tested as culture supernatant in ELISA; also called AJ540 antibody

binding result (anti-FX-arm of ACE910): no binding
B2: mouse antibody AQ8 (antibody, V domains shown)
VH: EVNLVESGGGLVQPGGSMSLSCAASGFTFTDYYMSWVRQPPGKALEWLALIRNKANGYTTEYSASVKGRFTISRDNSQSILYLQMNALRAEDSATYYCARDSYYSYDGYAMDYWGQGTSVTVSS
VL: DIQMTQSPASLAASVGETITITCQASENIYFSLAWYQQKQGKSPQLLIYNTDSLKDGVPSRFSGSGSGTQYSMKINSMQPEDTATYFCRQSYDFPWTFGGGTKLEIK
notes: Mouse hybridoma antibody, tested as culture supernatant in ELISA; also called AQ8 antibody
